Assay results published in publication PMC2690590, “Functional recombinant MHC class II molecules and high-throughput peptide-binding assays” (Immunome Research, 2009).

How the values were obtained:
[1] = molecular target: DR2a (DRA*0101/DRB5*0101) with non-biotinylated β chain, competitive LOCI assay (human); test: AlphaScreen or HTRF
[2] = molecular target: DR1GrpE: DR1 α chain 1–181 and β chain 1–190 fused C-terminally to GrpE, not biotinylated (human); test: AlphaScreen or HTRF
[3] = molecular target: I-E^d (mouse MHC class II) (mouse) (UniProt P01904); test: AlphaScreen or HTRF; direct LOCI: α and biotinylated β chains refolded with peptide titration, 48 h at 18°C; streptavidin donor beads and anti-MHC-II antibody acceptor beads; half saturation (EC50) fitted to Y = Bmax*X/(KD+X) and taken as approximate KD; pH as optimised for each MHC (DR2a at pH 6)
[4] = molecular target: DR3: DRA*0101/DRB1*0301 (human); test: as above
[5] = molecular target: DRB3*0301: DRA*0101/DRB3*0301 (human); test: as above
[6] = molecular target: DR2a (DRA*0101/DRB5*0101), biotinylated, direct LOCI assay at pH 6 (human); test: as above
[7] = molecular target: DRB1*0813: DRA*0101/DRB1*0813 (human); test: as above
[8] = molecular target: DP401: DPA1*0103/DPB1*0401 (human); test: as above
[9] = molecular target: DR4 (DRA*0101/DRB1*0401), biotinylated, LOCI assay (human); test: as above

Binder	IC50 [1] [nM]	IC50 [2] [nM]	Kd [3] [nM]	Kd [4] [nM]	Kd [5] [nM]	Kd [6] [nM]	Kd [7] [nM]	Kd [8] [nM]	Kd [9] [nM]
IQMLKNGKKIPKVEMS [Murine β2m peptide …]	3	1230	117	21	70	6	73	–	–
FLYGALLLA [MBP peptide …]	–	3920	–	–	–	–	–	34	–
YLFFYRKSV [TERT572Y peptide …]	–	4290	322	–	–	2650	95	–	1590
